# From patent publication US10208121B2, “Anti-Axl antagonistic antibodies” (BERGEN TEKNOLOGIOVERFORING AS, priority 2014, dated 2019)
# B1: c10G5: chimeric (mouse variable/human constant) IgG1 variant of antibody 10G5 (antibody)
# heavy: QVQLQQSGAELVRPGASVKLSCKASGYSFTDFYINWVRQRPGQGLEWIARIFPGGDNTYYNEKFKGKATLTAEESSSTAYIQLSSLTSEDSAVYFCARRGLYYAMDYWGQGISVTVSS
# light: DVLMTQTPLSLPVSLGDQASISCRSSQSLVHSNGIPYLHWYLQKPGQSPKLLIYRVSNRFSGVPDRFSGSGSGTDFTLKISRVEAEDLGVYFCSQGTHVPPTFGGGTKLEIK
# modifications: left off: a dimerising Fc or GST
# notes: chimeric (mouse variable/human constant) IgG1 variant of antibody 10G5
# Legend:
# A549 tumours = experiment: A549 NSCLC xenograft in nude mice; type: in vivo, mouse
# Experimental: (§1) Inhibition of A549 xenograft tumour growth by chimeric antibody 10G5. The antibody was administrated intraperitoneally at 20 mg/kg, twice a week, starting when the mean tumour size reached 100 mm^3. Tumour growth curves for the groups treated with either vehicle (sterile PBS) or chimeric 10G5 are shown. Error bars represent standard error of the mean (SEM). Statistical analysis was performed using two-way ANOVA. **, P<0.01.
# To evaluate the anti-tumour activity of anti-Axl chimeric antibodies in vivo, we used a mouse xenograft model of human non-small cell lung cancer (NSCLC). The human NSCLC A549 cells (ATCC #CCL-185) A549 cells were propagated in vitro as a monolayer culture in DMEM medium supplemented with 10% FBS, 2 mM L-Glutamine, 100 U/ml penicillin and 100 μg/ml streptomycin, 0.01M HEPES buffer, 0.45% D-(+)-glucose, 1 mM sodium pyruvate. Nude mice were implanted subcutaneously (s.c.) into the flank with 5×10^6 A549 cells resuspended in serum-free medium/Matrigel (1:1). When the tumour size reached 100 mm^3 (Day 0 in FIG. 14), the animals were randomized and treated with either vehicle (sterile PBS) or anti-Axl chimeric antibody 10G5 at 20 mg/kg, by intraperitoneal (i.p.) injections twice weekly for 4 weeks.
# Mv4-11 tumours = experiment: Mv4-11 AML xenograft in nude mice; type: in vivo, mouse
# Experimental: as §1, with “Mv4-11” for “A549”, “by the” for “by”, “30” for “20”, “200” for “100”, “ANOVA. *, P<0.05;” for “ANOVA.”, “P<0.01; ****, P<0.0001.” for “P<0.01.”
# To evaluate the anti-tumour activity of anti-Axl chimeric antibodies in a model of haematological cancer, we used a mouse xenograft model of human acute myeloid leukaemia (AML). The human AML Mv4-11 cells (ATCC # CRL-9591) cells were propagated in suspension in IMDM medium supplemented with 10% FBS, 2 mM L-Glutamine, 100 U/ml penicillin and 100 μg/ml streptomycin. Nude mice were implanted s.c. into the flank with 5×10^6 Mv4-11 cells resuspended in the mixture of serum-free IMDM medium and Matrigel (1:1). When the tumour size reached 200 mm^3 (Day 0 in FIG. 15), the animals were randomized and treated with either vehicle (sterile PBS) or anti-Axl chimeric antibody 10G5 at 30 mg/kg, by i.p. injections twice weekly for 4 weeks.
molecule,measurement,setting,value
B1,growth of A549 tumours compared with the control,"A549 tumours; 20 mg/kg i.p. twice weekly for 4 weeks, P<0.01, two-way ANOVA",significantly attenuated growth of A549 tumours
same,inhibition of tumour growth,"A549 tumours; 20 mg/kg i.p. twice weekly, after four weeks of treatment, versus vehicle (PBS)",around 40%
same,growth of Mv4-11 tumours compared with the control,"Mv4-11 tumours; 30 mg/kg i.p. twice weekly for 4 weeks, P<0.0001, two-way ANOVA",extremely significantly attenuated growth of Mv4-11 tumours
same,inhibition of tumour growth,"Mv4-11 tumours; 30 mg/kg i.p. twice weekly, after three weeks of treatment, versus vehicle (PBS)",around 75%
